Reference: US12637513B2, “Method of treating cancer by administering an inhibitor of erythropoietin receptor activity comprising either erythropoietin receptor or erythropoietin protein” (ImmunEdge, Inc., priority 2022, dated 2026)
Read-outs that look alike come from different tables or passages of the source. Each block holds one molecule with its values, some of them ahead of it.

Key:
[1] = molecular target: HIF-1a (Homo sapiens, UniProt Q16665); conditions: target HIF-1a; read-out: IC50; cited from earlier work
Sequence of HIF-1a (Q16665 whole entry): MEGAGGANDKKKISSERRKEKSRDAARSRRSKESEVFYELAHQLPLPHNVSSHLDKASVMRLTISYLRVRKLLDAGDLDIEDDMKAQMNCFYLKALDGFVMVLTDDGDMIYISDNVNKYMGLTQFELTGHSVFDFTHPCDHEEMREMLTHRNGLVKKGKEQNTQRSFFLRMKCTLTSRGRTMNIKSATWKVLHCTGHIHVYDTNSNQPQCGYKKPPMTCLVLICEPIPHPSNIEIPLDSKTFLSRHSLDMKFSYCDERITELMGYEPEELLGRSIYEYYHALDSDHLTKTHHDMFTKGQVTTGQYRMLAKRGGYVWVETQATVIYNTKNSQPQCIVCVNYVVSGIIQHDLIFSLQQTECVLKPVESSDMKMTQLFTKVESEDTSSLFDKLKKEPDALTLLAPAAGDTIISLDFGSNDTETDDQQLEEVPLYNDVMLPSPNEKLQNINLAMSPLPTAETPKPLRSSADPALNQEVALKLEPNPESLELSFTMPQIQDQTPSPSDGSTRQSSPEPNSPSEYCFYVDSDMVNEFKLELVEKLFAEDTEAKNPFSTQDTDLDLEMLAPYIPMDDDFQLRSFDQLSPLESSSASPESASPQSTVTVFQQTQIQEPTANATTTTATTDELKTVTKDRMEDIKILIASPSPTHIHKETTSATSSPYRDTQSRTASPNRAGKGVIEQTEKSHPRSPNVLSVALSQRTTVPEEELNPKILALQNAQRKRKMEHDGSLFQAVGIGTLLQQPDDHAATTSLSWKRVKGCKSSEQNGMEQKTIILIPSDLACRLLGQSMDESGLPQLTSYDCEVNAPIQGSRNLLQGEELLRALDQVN

[2] = tested on: PHD; conditions: cited from earlier work
[3] = molecular target: HIF-2a (Homo sapiens, UniProt Q99814); conditions: target HIF-2a; cited from earlier work
Sequence of HIF-2a (Q99814 whole entry): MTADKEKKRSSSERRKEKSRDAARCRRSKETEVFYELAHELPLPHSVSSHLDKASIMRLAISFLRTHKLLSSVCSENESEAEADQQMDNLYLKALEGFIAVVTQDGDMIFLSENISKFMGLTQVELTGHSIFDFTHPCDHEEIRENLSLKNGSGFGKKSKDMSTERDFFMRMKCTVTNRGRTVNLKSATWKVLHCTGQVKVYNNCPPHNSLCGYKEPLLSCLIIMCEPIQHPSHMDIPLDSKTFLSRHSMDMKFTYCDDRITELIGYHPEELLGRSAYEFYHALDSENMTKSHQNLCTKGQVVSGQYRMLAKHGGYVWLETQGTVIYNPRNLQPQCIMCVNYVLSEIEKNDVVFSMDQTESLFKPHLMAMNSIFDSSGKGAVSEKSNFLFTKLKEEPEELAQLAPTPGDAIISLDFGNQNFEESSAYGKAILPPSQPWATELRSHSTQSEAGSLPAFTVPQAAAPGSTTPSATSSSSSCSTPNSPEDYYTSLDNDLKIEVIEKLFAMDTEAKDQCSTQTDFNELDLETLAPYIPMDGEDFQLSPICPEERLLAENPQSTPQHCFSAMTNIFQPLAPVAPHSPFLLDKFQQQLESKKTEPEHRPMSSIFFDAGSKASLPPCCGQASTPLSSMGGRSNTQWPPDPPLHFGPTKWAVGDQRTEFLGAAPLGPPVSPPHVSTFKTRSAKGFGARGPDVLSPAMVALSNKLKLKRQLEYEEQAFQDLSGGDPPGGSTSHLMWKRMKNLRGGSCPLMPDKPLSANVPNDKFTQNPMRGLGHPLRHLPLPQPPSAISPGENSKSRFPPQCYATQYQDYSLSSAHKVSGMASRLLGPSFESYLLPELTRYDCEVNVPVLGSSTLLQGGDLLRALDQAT

[4] = molecular target: T1, EPOR (UT-7 cells) (Homo sapiens, UniProt P19235); assay: Flow-based phosphorylated Stat5 assay, blocking by anti-EPOR antibodies; type: cell-based; conditions: 20 μg/ml antibody; 0.1 μg/ml recombinant human EPO
T1 construct: endogenous in cells; host or cells: UT-7 human leukemia cells
T1 sequence (P19235 25-508): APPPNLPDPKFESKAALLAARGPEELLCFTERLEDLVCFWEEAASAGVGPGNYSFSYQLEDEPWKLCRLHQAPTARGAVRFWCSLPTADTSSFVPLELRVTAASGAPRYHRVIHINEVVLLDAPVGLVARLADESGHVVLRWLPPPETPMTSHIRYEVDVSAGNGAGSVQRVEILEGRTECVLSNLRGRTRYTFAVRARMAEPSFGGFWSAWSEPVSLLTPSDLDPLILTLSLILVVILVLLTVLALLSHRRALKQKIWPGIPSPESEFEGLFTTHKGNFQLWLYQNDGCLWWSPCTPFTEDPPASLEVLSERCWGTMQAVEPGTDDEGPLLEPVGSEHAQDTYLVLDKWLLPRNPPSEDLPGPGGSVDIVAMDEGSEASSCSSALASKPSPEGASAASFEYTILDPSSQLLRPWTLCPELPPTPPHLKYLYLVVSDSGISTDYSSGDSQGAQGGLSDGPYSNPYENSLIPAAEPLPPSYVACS
Procedure: EPOR activation leads to phosphorylation of Stat5. A flow-based assay on phosphorylated Stat5 was set up to test the blocking activities of anti-EPOR antibodies. The UT-7 cells were cultured without GM-CSF for overnight before the EPO stimulation. 3×10^6 cells/ml were incubated with 20 μg/ml of anti-EPOR for 15 minutes before stimulation with 0.1 μg/ml of recombinant human EPO (Peprotech®, Cat #100-64) for 10 minutes at 37° C. The cells were fixed immediately with fixation buffer (Cytofix™ buffer; BD Biosciences, Cat #554655) and permeabilized with methanol. After washing, cells were stained with PE labeled anti-Stat5 (BD Biosciences, Cat #612567) and subjected to flow cytometry analysis.

[5] = molecular target: T2, EPO/EPOR interaction (EPOR-CD131-Fc and EPO) (Homo sapiens, UniProt P19235+P32927); assay: Octet blocking of the EPO/EPOR interaction by hybridoma supernatants; type: binding; conditions: EPO 10 nM
T2 construct: Chimeric Fc fusion proteins of the extracellular domains of human EPOR and human CD131; purchased Sino Biological CT010-H02H
T2 sequence (P19235 25-250 limits assumed): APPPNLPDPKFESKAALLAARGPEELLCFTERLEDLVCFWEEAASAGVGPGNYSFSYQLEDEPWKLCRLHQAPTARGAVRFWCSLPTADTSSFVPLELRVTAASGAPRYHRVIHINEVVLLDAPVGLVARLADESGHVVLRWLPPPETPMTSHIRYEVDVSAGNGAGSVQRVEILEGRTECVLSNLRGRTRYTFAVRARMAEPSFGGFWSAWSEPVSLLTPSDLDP
T2 sequence (P32927 17-443 limits assumed): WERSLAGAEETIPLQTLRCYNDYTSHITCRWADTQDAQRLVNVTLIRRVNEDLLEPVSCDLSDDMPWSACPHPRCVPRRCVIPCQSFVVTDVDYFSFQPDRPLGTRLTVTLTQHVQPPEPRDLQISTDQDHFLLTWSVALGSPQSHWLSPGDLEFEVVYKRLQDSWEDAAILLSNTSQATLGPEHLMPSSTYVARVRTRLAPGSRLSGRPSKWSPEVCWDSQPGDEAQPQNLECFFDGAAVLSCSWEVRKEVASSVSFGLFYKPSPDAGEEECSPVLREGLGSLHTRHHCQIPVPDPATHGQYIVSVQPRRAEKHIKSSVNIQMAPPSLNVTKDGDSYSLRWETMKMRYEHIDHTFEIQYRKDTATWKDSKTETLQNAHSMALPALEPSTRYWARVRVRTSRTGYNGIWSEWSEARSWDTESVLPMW

[6] = molecular target: T3, 293T/CD131 cells (Homo sapiens, UniProt P32927); assay: Staining of 293T/CD131 cells with purified antibodies; type: binding
T3 construct: expressed in transfected cells; host or cells: 293T cells, lentiviral transduction
T3 sequence (P32927 17-897): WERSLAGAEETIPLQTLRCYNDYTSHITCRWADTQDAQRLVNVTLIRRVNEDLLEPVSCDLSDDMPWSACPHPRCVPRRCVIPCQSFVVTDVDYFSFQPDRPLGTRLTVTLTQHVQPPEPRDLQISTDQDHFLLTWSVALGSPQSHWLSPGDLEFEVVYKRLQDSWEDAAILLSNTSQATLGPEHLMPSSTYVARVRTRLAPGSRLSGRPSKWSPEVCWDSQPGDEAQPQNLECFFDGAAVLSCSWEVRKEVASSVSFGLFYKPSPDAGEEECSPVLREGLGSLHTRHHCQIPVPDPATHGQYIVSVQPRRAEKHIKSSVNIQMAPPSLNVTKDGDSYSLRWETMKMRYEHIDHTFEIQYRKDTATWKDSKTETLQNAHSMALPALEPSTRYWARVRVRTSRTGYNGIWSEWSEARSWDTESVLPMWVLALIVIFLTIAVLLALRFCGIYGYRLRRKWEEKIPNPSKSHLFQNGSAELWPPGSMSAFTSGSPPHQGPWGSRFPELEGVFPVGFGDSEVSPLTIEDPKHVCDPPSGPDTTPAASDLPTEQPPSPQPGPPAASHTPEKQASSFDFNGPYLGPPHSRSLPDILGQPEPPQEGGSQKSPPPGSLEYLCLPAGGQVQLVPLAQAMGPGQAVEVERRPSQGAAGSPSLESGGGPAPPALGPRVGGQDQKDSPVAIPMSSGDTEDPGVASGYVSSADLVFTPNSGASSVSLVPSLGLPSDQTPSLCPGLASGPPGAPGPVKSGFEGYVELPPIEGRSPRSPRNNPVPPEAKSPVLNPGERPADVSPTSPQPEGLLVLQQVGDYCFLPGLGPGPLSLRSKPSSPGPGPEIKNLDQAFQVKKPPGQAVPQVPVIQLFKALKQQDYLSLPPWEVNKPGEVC
Procedure: (§1) The purified antibodies were used to stain the human leukemia UT-7 cells, 293T/EPOR, 293T/CD131, and 293T/EPOR/CD131 cells to confirm antigen binding. The UT-7 cells were maintained in Roswell Park Memorial Institute (RPMI) with 10% Fetal Bovine Serum (FBS) and 5 ng/ml of recombinant human GM-CSF (Peprotech®, Cat #300-03). The 293T cells expressing hEPOR, hCD131, or both were maintained in Dulbecco's Modified Eagle Medium (DMEM) with 10% FBS. 1×10^6 cells/ml were incubated with purified hybridoma clones M2 and M41 at a 3-fold dilution series starting from 20 μg/ml for 30 minutes at 4° C. After washing, the cells were incubated with PE labeled secondary antibody and subjected to flowcytometric analysis. […] The binding profiles of the 293T/EPOR/CD131 cells are similar except the peak MFIs around 1500, half of that of the 293T/EPOR cells (FIG. 29B).

[7] = molecular target: T4, 293T/EPOR/CD131 cells (Homo sapiens, UniProt P19235); assay: Staining of 293T/EPOR/CD131 cells with purified antibodies; type: binding
T4 construct: expressed in transfected cells; host or cells: 293T cells, lentiviral transduction
T4 sequence (P19235 25-508): T1 sequence (P19235 25-508)
Procedure: as §1

[8] = molecular target: T5, 293T/EPOR cells (Homo sapiens, UniProt P19235); assay: Staining of 293T/EPOR cells with purified antibodies (flow cytometry); type: binding
T5 construct: expressed in transfected cells; host or cells: 293T cells expressing hEPOR
T5 sequence (P19235 25-508): T1 sequence (P19235 25-508)
Procedure: as §1

[9] = molecular target: T6, EPOR-Fc (Homo sapiens, UniProt P19235); assay: Bio-layer interferometry (Octet) binding of hybridoma antibodies to EPOR-Fc; conditions: hybridoma supernatants; 30 nM soluble receptor
T6 construct: The extracellular domains of EPOR or CD131 are produced as soluble Fc fusion proteins; purchased Sino Biological 10707-H02H
T6 sequence (P19235 25-250 limits assumed): T2 sequence (P19235 25-250 limits assumed)
Excerpt: (§2) The B cells from ATX-GK mice were fused with mouse myeloma cells to generate hybridoma. The hybridoma cells were screened twice. In the first screening, 293 cells expressing human EPOR, human CD131, or both were used as the primary screen. 87 hybridoma antibodies have been isolated by positive staining on 293T cells expressing human EPOR (hEPOR), human CD131 (hCD131), or both, with the hybridoma supernatants (Table 11 and FIG. 17). Expression of EPOR and CD131 was confirmed by flow cytometry with Phycoerythrin (PE)-labeled anti-EPOR (R&D Systems, Cat #FAB307P) and Alexa Fluor® 647 (AF647)-labeled anti-CD131 (BD Biosciences, Cat #564191), respectively (FIG. 28B). All hybridoma clones were purified and sequenced. Binding kinetics with soluble hetero-EPOR (EPOR-CD131-Fc), soluble EPO receptor subunit of hetero-EPOR (EPOR-Fc), and soluble CD131 subunit of hetero-EPOR (CD131-Fc) were measured using bio-layer interferometry (Octet®) by capturing the hybridoma antibodies in the supernatants on biosensors coated with anti-mouse Fc first and dipping the biosensors into the solutions containing 30 nM of the soluble receptor Fc fusion proteins. The supernatants were also used to block the interaction between EPO and EPOR. The soluble EPOR-CD131-Fc was first captured on biosensors coated with anti-human Fc and then dipped into 10 nM of EPO with or without the hybridoma supernatants. […]

[10] = molecular target: T7, soluble hetero-EPOR (EPOR-CD131-Fc) (Homo sapiens, UniProt P19235+P32927); assay: Bio-layer interferometry (Octet) binding of hybridoma antibodies to EPOR-CD131-Fc; conditions: hybridoma supernatants; 30 nM soluble receptor
T7 construct: Chimeric Fc fusion proteins of the extracellular domains of human EPOR and human CD131; purchased Sino Biological CT010-H02H
T7 sequence (P19235 25-250 limits assumed): T2 sequence (P19235 25-250 limits assumed)
T7 sequence (P32927 17-443 limits assumed): T2 sequence (P32927 17-443 limits assumed)
Excerpt: as §2

Molecule: O=S(=O)(NCCSSCCNS(=O)(=O)c1cc(Cl)ccc1Cl)c1cc(Cl)ccc1Cl [KC7F2]
IC50 [1]: 20 µM

Molecule: c1ccc(-c2ccc(CNc3nc(-c4ccccn4)nnc3-c3ccccc3)cc2)cc1 [ML228]
IC50 ([2]; target cell empty): 1 µM

Molecule: O=c1c(-n2ccnn2)c[nH]n1-c1cc(N2CCOCC2)ncn1 [Molidustat]
IC50 ([2]; target PHD): 0.45 µM

Molecule: O=C(O)CNC(=O)c1ncc(-c2cn(CCCc3ccc(Cl)cc3)nn2)cc1O [Prolyl Hydroxylase inhibitor 1]
IC50 ([2]; target PHD): 0.0622 µM

Molecule: O=[N+]([O-])c1c(Nc2cc(F)cc(Cl)c2)ccc2nonc12 [TC-S 700]
IC50 [3]: 0.081 µM

Molecule: CC[C@@H](C)C[C@H](C)C[C@H](C)/C=C(\C)[C@H]1OC(O)([C@](C)(O)C(=O)N[C@@H]2C(=O)N3NCCC[C@@H]3C(=O)N(O)CC(=O)N(C)CC(=O)NCC(=O)N(C)CC(=O)O[C@H]2C(C)C)CC[C@@H]1OC (stereo partly drawn) [Verucopeptin]
IC50 [1]: 0.22 µM

blocking of Stat5 phosphorylation [4]: partial blocking
blocking of the EPO/EPOR interaction [5]: partial blocking
staining of 293T/CD131 cells [6]: did not stain
peak MFI [7]: around 1500
binding to 293T/EPOR cells ([8]; 0.74 μg/ml purified antibody): lost most of the binding
binding to 293T/EPOR cells ([8]; 20 μg/ml purified antibody): robust binding activities
B1: EPORab - M41: hybridoma antibody clone, VH/VK in Table 10 (antibody, V domains shown)
VH: QVQLVESGGGLVQPGRSLRLSCAASGFTFDDYAIHWVRQAPGKGLEWVSGISYNSENIGYADSVKGRFTISRDNAKNSLYLQMNSLRSEDTALYYCAKDMFLTWFSSFDYWGQGTLVTVSS
VL: ETKLTQSPGTLSLSPGERTTLSCRASQSISNNYLAWYQQKPGQAPRLLIYRASTRATGIPDRFSGSGSGTDFTLTIRRLEPEDFAVYYCQRYGRSPLTFGGGTKVEIK

binding to EPOR-Fc [9]: potent binding
blocking of the EPO/EPOR interaction [5]: partial blocking
binding to EPOR-CD131-Fc [10]: potent binding
B2: EPORab - M1: hybridoma antibody clone, VH/VK in Table 10 (antibody, V domains shown)
VH: QVQLQESGPGLVKPSQTLSLTCTVSGGSISSGGYYWSWIRQHPGKGLEWIGNIYYSGNPYYNPSLKSRLIISVDTSKNQFSLRLNSVTAADTAVYYCATFYYGSGSYYNEDYWGQGTLVTVSS
VL: DIQMTQSPSSLSASVGDRVTITCRASQGIRIDLGWYQQKPGKAPKRLIYAASSLKSGVPSRFSGSGSGTEFTLTISSLQPEDFTTYFCLQHNSYPYTFGQGTKLEIK
